Positions count from the first letter of the chain named.
B1: 26D5-75602-348-F04-mAb: human IgG1f/kappa mAb; VH SEQ ID NO: 58, VL SEQ ID NO: 88 (antibody, V domains shown)
VH: EVQLVESGGGLIQPGGSLRLSCAASGFTVSSNQFSWVRQAPGKGLEWVSYFYPGGRTYYADSVKGRFTISRDNSKNTLYLQMNSLRAEDTAVYYCAKAGFGGGDYWGQGTLVTVSS
VL: DIQMTQSPSSVSASVGDRVTITCRASQGISSNLAWYQQKPGKAPKLLIYAASSLQSGVPSRFSGSGSGTDFTLTISSLQPEDFATYYCQQANSFPLTFGGGTKVEIK
B2: 26D5-75576-348-B03-mAb: human IgG1f/kappa mAb; VH SEQ ID NO: 59, VL SEQ ID NO: 88 (antibody, V domains shown)
VH: B1 VH with Q33D, F34M, W36Y, S49A, F51I, P53S, A96V, K97T
VL: B1 VL
B3: 26D5-075017-343-F04-mAb: human IgG1f/kappa mAb; VH SEQ ID NO: 60, VL SEQ ID NO: 91 (antibody, V domains shown)
VH: B1 VH with Q33A, F34M, Y50F, F51I, K97R
VL: B1 VL with Y36W
B4: 25D5-75592-0348-A04-mAb: human IgG1f/kappa mAb; VH SEQ ID NO: 61, VL SEQ ID NO: 89 (antibody, V domains shown)
VH: B1 VH with Q33A, F34I, S35A, S49A, F51I, A96V, K97T
VL: B1 VL with L33N, A34Q, A50Y, A91G, S93E
B5: 26D5-75746-0348-C07-mAb: human IgG1f/kappa mAb; VH SEQ ID NO: 57, VL SEQ ID NO: 92 (antibody, V domains shown)
VH: B1 VH with Q33A, F51I, P53S, K97A
VL: B1 VL with N32Q, L33V, A50P, S53N, Q55W, S93N
B6: 25D5-296-A07-mAb: human IgG1f/kappa mAb; VH SEQ ID NO: 60, VL SEQ ID NO: 93 (antibody, V domains shown)
VH: B1 VH with Q33A, F34M, Y50F, F51I, K97R
VL: B1 VL with N32W, A91H
B7: 26D5-296-H03-mAb: human IgG1f/kappa mAb; VH SEQ ID NO: 63, VL SEQ ID NO: 88 (antibody, V domains shown)
VH: B1 VH with Q33A, F34M, Y50F, F51I, K97R, A98G
VL: B1 VL
B8: 26D5-295-F07-mAb: human IgG1f/kappa mAb; VH SEQ ID NO: 64, VL SEQ ID NO: 88 (antibody, V domains shown)
VH: B1 VH with S31E, Q33A, F34M, Y50F, F51I, P53S, K97R, A98G
VL: B1 VL
B9: 26D5-296-G07-mAb: human IgG1f/kappa mAb; VH SEQ ID NO: 65, VL SEQ ID NO: 94 (antibody, V domains shown)
VH: B1 VH with S31E, Q33Y, F34M, Y50F, F51I, P53S, K97R
VL: B1 VL with G28Y
B10: 26D5-295-E07-mAb: human IgG1f/kappa mAb; VH SEQ ID NO: 66, VL SEQ ID NO: 88 (antibody, V domains shown)
VH: B1 VH with T28Q, Q33A, F34M, Y50F, F51I, P53S, K97R, A98G
VL: B1 VL

Test: SPR (Biacore) Protein A mAb capture, Compound A injected
Conditions: 37° C., binding to Compound A, apparent affinity, for rank ordering only, read-out: KD
Experimental: The binding of hybridoma expressed 26D5 parent mAb (VH SEQ ID NO: 83 and VL SEQ ID NO: 98 in IgG1 f format)(P1-072224) and affinity matured mAbs to Compound A was examined by SPR (Biacore™) using a protein A capture method. The running buffer was 1×PBS (phosphate buffered saline, pH 7.4) with 0.05% Tween 20 and 2% DMSO. Binding experiments were carried out at 37° C. Protein A was coated on a CM5 S-series sensor chip (Cytiva, Cat. No. 29149603) at high density (2000+ RUs of protein A). The immobilization of protein A was carried out using the standard amine coupling immobilization procedure recommended by the manufacturer. The affinity matured antibody was then captured at a concentration of 2 ug/mL on the protein A surface at a flow rate of 3 uL/min for 2 minutes. Compound A was then injected over the captured antibody at concentrations spanning 100-3 nM (100, 50, 25, 12.5, 6.25, 3.125 nM) (FIG. 10) and for screening concentrations spanning 100-3 nM (100, 33, 11 nM) for 2 minutes at a flow rate of 100 uL/min and allowed to dissociate for at least 450 seconds. The chip surface was regenerated after each cycle with a 40 second pulse of 10 mM Glycine, pH 1.5. Background binding to the protein A surface alone was used to subtract non-specific binding. All experiments were run on a Biacore T200 surface plasmon resonance instrument using Biacore T200 Control software v. 2. Data analysis was performed using Biacore T200 evaluation software v 3.1. Apparent affinities were determined for rank ordering only since dissociation rates were too slow to be measured by Biacore. The names of the mAbs in Table 10 refer to mAbs having the H and L chain sequences of the corresponding Fabs in Table 3 in an IgG1f format.

Row | Molecule | Kd [pM]
1 | B1 | < 50
2 | B2 | < 60
3 | B3 | 110
4 | B4 | 100
5 | B5 | 100
6 | B6 | 1600
7 | B7 | 1100
8 | B8 | 940
9 | B9 | 380
10 | B10 | 1200

Same assay, conditions: 37° C., binding to Compound A, apparent, for rank ordering only

Row | Molecule | Ka [M⁻¹ s⁻¹] | Kd [s⁻¹]
11 | B1 | 910000 | <5e-05
12 | B2 | 880000 | <5e-05
13 | B3 | 1.5e+06 | 0.00017
14 | B4 | 1e+06 | 0.00011
15 | B5 | 2.4e+06 | 0.00024
16 | B6 | 170000 | 0.00027
17 | B7 | 160000 | 0.00018
18 | B8 | 180000 | 0.00017
19 | B9 | 850000 | 0.00032
20 | B10 | 190000 | 0.00023
